In doi:10.1101/2025.04.03.647111 one finds stoichiometry N data, which are given here for one substance.

Assay [1] has as its target HtpG from Synechococcus elongatus PCC 7942 (Synechococcus elongatus PCC 7942). Briefly: SEC. In general terms: In gel filtration, larger molecules generally elute earlier.
For assay [2] the target is unchanged. As to the kind of experiment: AUC.

For “HtpG from Synechococcus elongatus PCC 7942 (natural protein)”, the stoichiometry N in assay [1] and in assay [2] was 2 each time.
